The source of these data is PMC3873232.

Assay [1] has as its target unmodified Spt5 CTD peptide (S. pombe). Briefly: pull-down; biotinylated peptides (50 µg) on streptavidin Dynabeads incubated with 50-200 ng TAP-purified factor in 200 µl (20 mM Hepes pH 7.6, 37.5 mM KOAc, 2.5 mM MgOAc, 5% glycerol, 0.075% Triton X-100), 4°C, 1 h; washes with 250 mM KOAc; immunoblot with a TAP antibody; percent bound by ImageJ. For orientation: Immunoblotting shows a protein as a band on a membrane.

The target of assay [2] is Thr1-P form of the Spt5 CTD peptide (S. pombe). The assay is described as above.

The substance “PAF complex purified from the tpr1-TAP strain (from UniProt O42668 1-1039; Q9UUE7 1-371)” had a percent bound in assay [1] of 5%.
For “Prf1-CBP (TAP-purified, native Prf1) (natural protein)”, the results for the percent bound in assay [2] and in assay [1] were 35% and 10%, respectively.
